Measurements taken from patent publication US20100092409A1 (DANISCO US, published 2010).
One block for each binder: values may come before it.

How the values were obtained:
[1] = target: T1, transforming growth factor β1 (TGFβ1) (UniProt P01137 279-390); experiment: BioVeris ECL competition with a labeled competitor; grade ++ = apparent IC50 about 10-50 µM
Method: (§1) The resulting vectors were used to transform B. subtilis BG6006 host cells. Cultures were grown in 500 ml of MBD medium and the BBI species were purified essentially as described above and by Vogtentanz et al., 2007 (Protein Expr Purif 55:40-52 [2007]). BioVeris binding assays were performed essentially as outlined in Example 5 and by the manufacturer. Binding of the modified variant BBIs to their respective target proteins was measured using a BioVeris® binding assay, which is a competition assay that determines the binding of the modified variant BBIs to its target protein (e.g. VEGF, FGF5, TGFβ and TNFα) in the presence or absence of a labeled competitor. The competitor can be a labeled monoclonal antibody raised against the target protein or a labeled native receptor of the target protein. The electrochemiluminescent binding assays were performed essentially as described in Example 5. The apparent IC50s were determined from binding data by determining the concentration of the BBI species needed to reduce the BioVeris signal by one half. BBI scaffolds without the target binding peptide in the chymotrypsin inhibitory loop were used as negative controls.

[2] = target: T2, vascular endothelial growth factor (VEGF) (UniProt P15692-4 27-191, limits assumed, labeled with biotin for the BioVeris assay (sites not given)); experiment: BioVeris ECL competition with a labeled competitor; grade +++ = apparent IC50 about 2-10 µM
T2 sequence (P15692 other isoform, or with tags, fused parts or gaps limits assumed): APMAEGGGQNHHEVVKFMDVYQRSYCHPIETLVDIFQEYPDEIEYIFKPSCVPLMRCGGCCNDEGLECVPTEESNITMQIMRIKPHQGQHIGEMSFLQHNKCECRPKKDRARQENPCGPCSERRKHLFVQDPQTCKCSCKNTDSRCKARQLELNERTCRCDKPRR
Method: as §1

[3] = target: T3, fibroblast growth factor 5 (FGF-5) (UniProt P12034 21-268, limits assumed); experiment: BioVeris ECL competition with a labeled competitor; grade ++ = apparent IC50 about 10-50 µM
T3 sequence (looked up): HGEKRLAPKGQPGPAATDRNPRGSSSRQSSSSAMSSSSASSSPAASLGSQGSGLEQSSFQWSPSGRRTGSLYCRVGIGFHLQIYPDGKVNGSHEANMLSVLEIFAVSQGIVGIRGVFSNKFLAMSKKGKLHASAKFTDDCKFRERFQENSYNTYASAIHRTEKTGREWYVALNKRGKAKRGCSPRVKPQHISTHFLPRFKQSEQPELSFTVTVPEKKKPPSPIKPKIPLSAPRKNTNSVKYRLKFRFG
Method: as §1

[4] = target: T1, transforming growth factor β1 (TGFβ1); experiment: BioVeris ECL competition with a labeled competitor; negative control for TGFβ binding
Method: as §1

[5] = target: T2, vascular endothelial growth factor …; experiment: BioVeris ECL competition with a labeled competitor; negative control for VEGF binding
Method: as §1

[6] = target: T3, fibroblast growth factor 5 (FGF-5); experiment: BioVeris ECL competition with a labeled competitor; negative control for FGF-5 binding
Method: as §1

[7] = target: T2, vascular endothelial growth factor …; experiment: BioVeris ECL competition with a labeled competitor; grade ++ = apparent IC50 about 10-50 µM
Method: as §1

[8] = target: T4, tumor necrosis factor α (TNFα) (UniProt P01375 77-233); experiment: BioVeris ECL competition with a labeled competitor; grade + = apparent IC50 about 50-250 µM
T4 sequence (P01375 77-233 limits assumed): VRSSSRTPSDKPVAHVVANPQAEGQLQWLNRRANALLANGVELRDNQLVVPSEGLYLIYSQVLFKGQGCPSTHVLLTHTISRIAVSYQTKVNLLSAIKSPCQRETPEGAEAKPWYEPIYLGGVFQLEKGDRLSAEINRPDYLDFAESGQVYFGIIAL
Method: as §1

[9] = target: T4, tumor necrosis factor α (TNFα); experiment: BioVeris ECL competition with a labeled competitor; grade ++ = apparent IC50 about 10-50 µM
Method: as §1

[10] = target: T4, tumor necrosis factor α (TNFα); experiment: BioVeris ECL competition with a labeled competitor; negative control for TNFα binding
Method: as §1

T1 sequence (P01137 279-390 limits assumed): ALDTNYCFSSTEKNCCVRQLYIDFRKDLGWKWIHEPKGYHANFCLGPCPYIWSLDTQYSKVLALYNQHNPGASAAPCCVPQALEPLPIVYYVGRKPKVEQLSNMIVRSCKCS

B3: BBIt-AV-A13I-L29P-A40K-F50T-V52A (designed binder)
chain: DPDDESSKPCCDQCICTKSNPPQCRCSDMRPNSCHSACKSCKCYNLYGWTCTCADITDFCYEPCKPSE
notes: also called TA5; quintuple variant
- IC50 [2]: 2 to 10 µM

B8: BBIt-AV-A13I-S25K-M27A-L29R-S31E-A40K-F50Q-V52Q (designed binder)
chain: DPDDESSKPCCDQCICTKSNPPQCRCKDARRNECHSACKSCKCYNLYGWTCQCQDITDFCYEPCKPSE
notes: also called QQ8
- IC50 [2]: 2 to 10 µM

B9: BBIt-AV-A13I-S25K-M27A-L29R-S31A-A40H-F50R-V52L (designed binder)
chain: DPDDESSKPCCDQCICTKSNPPQCRCKDARRNACHSACKSCHCYNLYGWTCRCLDITDFCYEPCKPSE
notes: also called RL8
- IC50 [2]: 2 to 10 µM

B10: BBIt-AV-A13I-A40K-F50T-V52A (designed binder)
chain: DPDDESSKPCCDQCICTKSNPPQCRCSDMRLNSCHSACKSCKCYNLYGWTCTCADITDFCYEPCKPSE
- IC50 [2]: 2 to 10 µM

B11: BBIt-AV-A13I-S25R-M27A-L29P-S31A-A40H-F50K-V52T (designed binder)
chain: DPDDESSKPCCDQCICTKSNPPQCRCRDARPNACHSACKSCHCYNLYGWTCKCTDITDFCYEPCKPSE
notes: also called KT8
- IC50 [2]: 2 to 10 µM

B14: BBIt-VEGF-V5-A13I-S25R-M27A-L29P-S31A-F50K-V52T (designed binder)
chain: DPDDESSKPCCDQCICTKSNPPQCRCRDARPNACHSACKSCACKPSSASSCKCTDITDFCYEPCKPSE
notes: also called BBIt-AV-V5
- IC50 [7]: 10 to 50 µM

B15: BBIt-TNFα-T3-A13I-S25R-M27A-L29P-S31A-F50K-V52T (designed binder)
chain: DPDDESSKPCCDQCICTKSNPPQCRCRDARPNACHSACKSCACDMIMVSICKCTDITDFCYEPCKPSE
notes: also called BBIt-TNF-T3
- IC50 [8]: 50 to 250 µM

B16: BBIt-TNFα-T1-A13I-S25R-M27A-L29P-S31A-F50K-V52T (designed binder)
chain: DPDDESSKPCCDQCICTKSNPPQCRCRDARPNACHSACKSCACRYWQDIPCKCTDITDFCYEPCKPSE
notes: also called BBIt-TNF-T1
- IC50 [9]: 10 to 50 µM

B17: BBIt-TNFα-T2-A13I-S25R-M27A-L29P-S31A-F50K-V52T (designed binder)
chain: DPDDESSKPCCDQCICTKSNPPQCRCRDARPNACHSACKSCACAPEPILACKCTDITDFCYEPCKPSE
notes: also called BBIt-TNF-T2
- IC50 [8]: 50 to 250 µM

B19: BBIt-VEGF-V1-A13I-S25R-M27A-L29P-S31A-F50K-V52T (designed binder)
chain: DPDDESSKPCCDQCICTKSNPPQCRCRDARPNACHSACKSCACSKHSQITCKCTDITDFCYEPCKPSE
notes: also called BBIt-AV-V1
- IC50 [10]: > 250 µM
- IC50 [7]: 10 to 50 µM

B23: BBIt-AV (truncated BBI-AV, unmodified variant) (designed binder)
chain: DDESSKPCCDQCACTKSNPPQCRCSDMRLNSCHSACKSCACYNLYGWTCFCVDITDFCYEPCKPSE
notes: also called CT
- IC50 [2]: 2 to 10 µM

Now from value to binder:

- IC50 [1]: 10 to 50 µM
B1: PEN3-Q-BBIt-TGFβ1 (designed binder)
chain: DPDDESSKPCCDQCICTKSNPPQCRCSDMRPNSCHSACKSCACPENINVLPCTCADITDFCYEPCKPSE
notes: also called BBIt-PEN3-Q-A13I-L29P-F50T-V52A

- IC50 [2]: 2 to 10 µM
B2: BBIt-VEGKD-A13I-S25K-L29P-V52K (designed binder)
chain: DPDDESSKPCCDQCICTKSNPPQCRCKDMRPNSCHSACKSCICKYDLYWWCFCKDITDFCYEPCKPSE
notes: also called VegKD-Q

- IC50 [1]: 10 to 50 µM
B4: WTQ-Q-BBIt-TGFβ1 (designed binder)
chain: DPDDESSKPCCDQCICTKSNPPQCRCSDMRPNSCHSACKSCACWTQHIHNCTCADITDFCYEPCKPSE
notes: also called WTQ-BBIt-Q-TGF; BBIt-WTQ-Q-A13I-L29P-F50T-V52A

- IC50 [1]: 10 to 50 µM
B5: MM021W-Q-BBIt-TGFβ1 (designed binder)
chain: DPDDESSKPCCDQCICTKSNPPQCRCSDMRPNSCHSACKSCACKHNVDWLCTCADITDFCYEPCKPSE
notes: also called BBIt-MM021W-Q-A13I-L29P-F50T-V52A

- IC50 [3]: 10 to 50 µM
B6: MM007-Q-BBIt-FGF-5 (designed binder)
chain: DPDDESSKPCCDQCICTKSNPPQCRCSDMRPNSCHSACKSCACRTQPYPLCTCADITDFCYEPCKPSE
notes: also called BBIt-MM007-Q-A13I-L29P-F50T-V52A

- IC50 [4]: > 250 µM
- IC50 [3]: 10 to 50 µM
B7: FGFps2-Q-BBIt-FGF-5 (designed binder)
chain: DPDDESSKPCCDQCICTKSNPPQCRCSDMRPNSCHSACKSCACTWIDSTPCTCADITDFCYEPCKPSE
notes: also called BBIt-FGFps2-Q-A13I-L29P-F50T-V52A

- IC50 [5]: > 250 µM
- IC50 [6]: > 250 µM
B12: soybean Bowman-Birk Inhibitor (BBI), wild type (other)
chain: DDESSKPCCDQCACTKSNPPQCRCSDMRLNSCHSACKSCICALSYPAQCFCVDITDFCYEPCKPSEDDKEN
notes: Used as the negative control; also called sBBI; BBI-WT

- IC50 [2]: 2 to 10 µM
B13: BBdb-AV (Dolichos biflorus Bowman Birk Inhibitor with CK37281 in the second protease inhibitory loop) (designed binder)
chain: DPSESSKPCCDQCACTKSIPPQCRCTDVRLNSCHSACSSCACYNLYGWTCVCVDMKDFCYEPCK
notes: also called BBIdb-AV

- IC50 [7]: 10 to 50 µM
B18: BBIt-VEGF-V6-A13I-S25R-M27A-L29P-S31A-F50K-V52T (designed binder)
chain: DPDDESSKPCCDQCICTKSNPPQCRCRDARPNACHSACKSCACPVTKRVHCKCTDITDFCYEPCKPSE
notes: also called BBIt-AV-V6

- IC50 [2]: 2 to 10 µM
B20: BBIt-VEGF-V2-A13I-S25R-M27A-L29P-S31A-F50K-V52T (designed binder)
chain: DPDDESSKPCCDQCICTKSNPPQCRCRDARPNACHSACKSCACKTNPSGSCKCTDITDFCYEPCKPSE
notes: also called BBIt-AV-V2

- IC50 [2]: 2 to 10 µM
B21: BBIt-VEGF-V4-A13I-S25R-M27A-L29P-S31A-F50K-V52T (designed binder)
chain: DPDDESSKPCCDQCICTKSNPPQCRCRDARPNACHSACKSCACKHSAKAECKCTDITDFCYEPCKPSE
notes: also called BBIt-AV-V4

- IC50 [7]: 10 to 50 µM
B22: BBIt-VEGF-V3-A13I-S25R-M27A-L29P-S31A-F50K-V52T (designed binder)
chain: DPDDESSKPCCDQCICTKSNPPQCRCRDARPNACHSACKSCACRPTGHSLCKCTDITDFCYEPCKPSE
notes: also called BBIt-AV-V3

- IC50 [2]: 2 to 10 µM
B24: BBtc-AV (Torresea cearensis Bowman Birk Inhibitor with CK37281 in the second protease inhibitory loop) (designed binder)
chain: DPSSKWEACCDRCACTKSIPPQCHCADIRLNSCHSACESCACYNLYGWTCRCFDITDFCYKPCSG
notes: also called BBItc-AV
